These results are taken from the supplement of paper PMC12042874.

± gives the uncertainty stated by the source.

The nature of this data set: amyloid nucleation score (Sup35N fusion, yeast selection) (log enrichment); library NNK1; higher = more nucleation; inactive = no reads after selection. The gist of the method: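 Output and input plasmid inserts were sequenced by Illumina after psi-negative yeast carrying Sup35N fused to peptides of 20 random codons had been induced 24 hours with 100 μM copper sulfate and grown 7 days at 30°C on medium lacking adenine and uracil. The nucleation score is the DiMSum log enrichment of output over input reads, centred on the mode score of non-aggregating sequences. Sequences with under 100 input reads were excluded.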

On to THLVAPRSWLFIGPCRTKAS, for which the amyloid nucleation score was determined as 0.385 ± 0.89. HFGWNLGPMHTMKSSV gave an amyloid nucleation score of 0.464 ± 0.49. The result for HNLLM reads “inactive”; that for VLISENNITNHNSHECLVCY, -1.02 ± 1.7; that for RIDTFTWSCKCLPPSSIWLL, 0.009 ± 0.76. In the case of FIITWILTKNMKLGEVYSIS, the amyloid nucleation score was -0.132 ± 0.72. For the substance VFLHVES, the amyloid nucleation score stood at 1.85 ± 0.59. Regarding DWLHQSRL, the amyloid nucleation score was 0.239 ± 0.42. In turn, AKWPARSPSLQLGNFWFDTT displayed an amyloid nucleation score of 0.161 ± 0.59. The result for AYMWLGAINICLWYWSLGR reads 3.02 ± 0.21. Substance NLINSIGIVEAWEILPASSR gave an amyloid nucleation score of 0.124 ± 1.2. RIVYLCSSGCVRKCWLLCSG: the amyloid nucleation score amounted to 2.29 ± 0.24. ISMNF gave an amyloid nucleation score of 0.67 ± 1.1.

IASFKWGFLMDYNLYVSSSG had an amyloid nucleation score of 0.261 ± 0.38. RFLPVLVSIINKRQGGYDF displayed an amyloid nucleation score of 0.064 ± 0.46. Substance NGLWVGHLVLDGIYSA displayed an amyloid nucleation score of -0.564 ± 0.33. Regarding YVGAMCLTRGKVRRSEERN, the amyloid nucleation score turned out to be 0.553 ± 0.54. For the substance MTPKLVQSRT, the amyloid nucleation score was found to be 0.106 ± 0.91. With TGSLWRLRTSACWVLNHRKS, the amyloid nucleation score is -1.09 ± 1.

In turn, RNSRICSFS had an amyloid nucleation score of 0.59 ± 0.35.

Turning to SRSGSLKCRGAQGFTCY, the amyloid nucleation score stood at 0.564 ± 0.52.

IMLLAWQLSKMSSFVCKSTR: the amyloid nucleation score was determined as 0.16 ± 0.74. As to YLRDVRLYCVMRK, the amyloid nucleation score is -0.129 ± 0.38. Regarding VCVGFIGDVIRLERSANSVL, the amyloid nucleation score is -0.049 ± 0.3. In the case of YCCYAVRACFN, the amyloid nucleation score was found to be 7.509 ± 0.057. Consider VMVWHCRSATTWWKQVTMNL, for which the amyloid nucleation score was -0.584 ± 2.1. The substance CYVKTYKIKSLRR yielded an amyloid nucleation score of -0.07 ± 1.4.

Consider TKLAY, for which the amyloid nucleation score is 0.445 ± 0.49. The substance CVNLFSLLFWTLAIRCLNFR had an amyloid nucleation score of -0.025 ± 0.49.

In the case of HYYVLCFRVHLGQ, the amyloid nucleation score came to 0.176 ± 1.1. Substance CRDVY returned an amyloid nucleation score of 1.92 ± 0.51. NNSKFMWQLSNWSWYTWHYI returned an amyloid nucleation score of -0.392 ± 0.83. CDRFWMELG yielded an amyloid nucleation score of -0.267 ± 0.4.

In the case of ESSNLYYYRTSHKKKTTLCS, the amyloid nucleation score was -0.639 ± 1.7. The result for TSTSIGRVQCLYDSWRRTAW reads 0.73 ± 0.62; that for NRSGGTSAIDYHSWLVYHAG, -0.161 ± 0.28; that for SRDRKVYLAYVYVYTRNVQT, 0.683 ± 0.34. Take GSYECFHHLYCGWQSLLWAN: the amyloid nucleation score was 0.854 ± 0.39. In the case of GHVRFSMHRRSDVCKQGSND, the amyloid nucleation score stood at 0.91 ± 0.47. In the case of SMVKRSSVVYGLSRGSIKER, the amyloid nucleation score turned out to be 1.08 ± 0.69. Next, VSNERSWMRCFFMGSRIAHG: -0.735 ± 0.4; LVVFLNC: -0.607 ± 0.39; ICVNESKKVFQVFIANIGRG: 4.86 ± 0.07.

HRKTSPISENQVY displayed an amyloid nucleation score of -0.59 ± 0.27. In turn, VVCFMPVLMAVQMGCSHWNY displayed an amyloid nucleation score of 3.55 ± 0.063. Substance FDVLVIFGFDTNRDACSDAL came in with an amyloid nucleation score of 0.174 ± 0.38.

Consider KSVVLHWYAYSMLYPLWNLV, for which the amyloid nucleation score was found to be 0.511 ± 0.53. In the case of GTWNF, the amyloid nucleation score was -0.023 ± 0.55. Next, TFASTS: 0.002 ± 0.36; MMPFYHSNSR: -1.38 ± 1.1; IFDYSTLECESDEGEAEGMS: 0.572 ± 0.81.

Substance VTKVTLMLFLSCWLF gave an amyloid nucleation score of -0.677 ± 0.47. MLFPSVSKRLNVSALNCKNP displayed an amyloid nucleation score of -0.083 ± 1.4. Take FLYGYGADPMPMSSVGRGVK: the amyloid nucleation score was -0.864 ± 0.51.

Substance EDLRLGSSYYEMANEASYGT displayed an amyloid nucleation score of 1.82 ± 0.11. Next, PLLERHVAGLCGFFF: -0.908 ± 1.2; SGDRAYFSKFSVCIPRDRVQ: -0.046 ± 0.67. Turning to VRSFNRGFKMHTYIPTHFLW, the amyloid nucleation score was -0.55 ± 0.26. Next, HQVVNNGTWGEQYIWMLSAC: 0.442 ± 0.46.

Substance RIASSRVFFAFFRSLYMSGW had an amyloid nucleation score of 0.995 ± 0.47. CWVCNEKRAFRRPVSNQLRV registered an amyloid nucleation score of -0.146 ± 0.85. Take QYNSGLDRMA: the amyloid nucleation score was 1.14 ± 0.62.

Turning to AQQLGMMGVGFMQRWNCRF, the amyloid nucleation score was -1.74 ± 2.4.

For the substance SNKTSKDGCEFQVVQLVQRV, the amyloid nucleation score is -0.059 ± 0.33. The result for TVYIG reads 0.258 ± 0.3. Substance VCINFHYLVGINVIRRNDWV registered an amyloid nucleation score of 4.48 ± 0.1. For the substance IFILD, the amyloid nucleation score entry is “inactive”. In turn, SVLIRALFTFKLRSVERQDY had an amyloid nucleation score of 3.82 ± 0.069. In turn, YHRGIYLFSRSC displayed an amyloid nucleation score of -0.906 ± 0.88. For LWLRYGL, the amyloid nucleation score stood at 0.415 ± 0.72.

With SRSLPLHCMRHGVRRTGRMA, the amyloid nucleation score worked out at 0.668 ± 0.57. Turning to MFQVVGRYNGVFLVTEPWTC, the amyloid nucleation score entry is “inactive”. Next, LFLGMSNGLFLRMISRGCKW: -0.243 ± 0.33; FSSLMLLTGEYSLSIWCKRS: 1 ± 0.8.

LYAAYCRQGTTHAIR gave an amyloid nucleation score of -0.389 ± 0.54. As to GSFHTQRTWAFVVVVEVHGK, the amyloid nucleation score came out at 0.232 ± 0.41. For VVLRLRSSYFGGLAGMA, the amyloid nucleation score came to 0.121 ± 0.33. DFYLT: the amyloid nucleation score is -0.257 ± 1.4.

For the substance LFMLWLCCIKVFNKGCFGRS, the amyloid nucleation score is -0.297 ± 0.26.

TEIILYSILLSMYDLMFVVI showed an amyloid nucleation score of 0.268 ± 1.4. YMDGVPG displayed an amyloid nucleation score of 0.042 ± 1.2.

ISGAN: the amyloid nucleation score is -0.06 ± 0.44. With TRNSDASGNCCVTGRDV, the amyloid nucleation score is -0.849 ± 0.45.

LKCLFLIAIFYIINCCSNLS: the amyloid nucleation score entry is “inactive”.

FHVVSFQGETCDHRIGRIVY: the amyloid nucleation score amounted to 0.002 ± 0.33.

In turn, TGPDSISAYQHLFNCS returned an amyloid nucleation score of 1.64 ± 0.54. Substance KISYADF showed an amyloid nucleation score of 0.646 ± 1.1.

In turn, SFLLGQGTL displayed an amyloid nucleation score of 0.724 ± 0.69.

DDMVDVPFTMVGMWPYDSY came in with an amyloid nucleation score of -0.381 ± 0.3. Turning to NVIID, the amyloid nucleation score entry is “inactive”. Substance RMPNGTWSIGRHLVD gave an amyloid nucleation score of 0.384 ± 0.79. Take FMISRFLAMRILRTAIWRED: the amyloid nucleation score came out at 0.447 ± 0.78. In turn, LKYCYGTT gave an amyloid nucleation score of 0.171 ± 0.29. As for LTGRVFRSYRYGCTGQIAVD, the amyloid nucleation score is -0.624 ± 0.56. DLRKAGGWHRVIC yielded an amyloid nucleation score of 0.111 ± 0.56. Take CGIVFCSSFMDIFGPFDQTH: the amyloid nucleation score came to 8.373 ± 0.056. For the substance CVLCKQRFTILMQRWLVRK, the amyloid nucleation score turned out to be 0.961 ± 0.61.

On to EGSQLSPAWFGYRDDGFTTM, for which the amyloid nucleation score amounted to 0.904 ± 1. Substance MLNVEGNTLKSWIYGRHLVP gave an amyloid nucleation score of 0.097 ± 0.69. Turning to FDAMSANLESIYFSFNENMY, the amyloid nucleation score was -0.572 ± 0.56.

The substance FPDGEYPMTYTLWELKYVFV came in with an amyloid nucleation score of -0.487 ± 0.65. Substance VPWSFLQRSWLDIWECPYKL gave an amyloid nucleation score of -0.276 ± 0.41. Turning to LQSFVLLGDRIYRRFCVLMN, the amyloid nucleation score was 0.048 ± 1.2. Substance KFIVWTFWSYLLTATRM returned an amyloid nucleation score of 0.157 ± 0.79.

With ENKLNSPPWMLSLFTFLIVV, the amyloid nucleation score was -0.242 ± 0.66. VLSDSDINMRLEKEFYVIIS: the amyloid nucleation score entry was “inactive”. Turning to LPSDSFAVI, the amyloid nucleation score worked out at 0.483 ± 0.81. For the substance HLKGHFEGWGLIICVSSGFD, the amyloid nucleation score was found to be 2.08 ± 0.14. The substance KTPLYLPYLYFSIRLMCYWY showed an amyloid nucleation score of -0.47 ± 0.21. Take YSFIKCGSMCKEYKPCPTKL: the amyloid nucleation score was -0.11 ± 0.51.

As to WVDGESAPDDERRQWICDIG, the amyloid nucleation score was -0.948 ± 1.3. Next, VSNTWYLTVNLFLYIIPCN: 6.755 ± 0.058; SDELWLLQFPVLNNKLWEK: 0.726 ± 1.1; SYGGGYTTSQGYGLGELTKY: 0.543 ± 1.1.

As for KNAVSSGRSGKITRR, the amyloid nucleation score came out at 0.231 ± 1.4. In turn, QYCIHNNFEYDGL displayed an amyloid nucleation score of -0.98 ± 0.47. GLSQWGTVRCHTAASIYLAT: the amyloid nucleation score stood at 0.316 ± 0.58.

In the case of ETSGSPFILIICIYELNVVM, the amyloid nucleation score amounted to 4.61 ± 0.07. FFAHNRTMSRRNQAFGF yielded an amyloid nucleation score of 0.86 ± 1.1. For the substance KNFFPFAFVFL, the amyloid nucleation score is 7.083 ± 0.053. As for GVGNTRQRVFRVVHCLAMLQ, the amyloid nucleation score is 0.634 ± 0.88. The result for LVLSVFWRNVVWAINLAVVS reads -0.521 ± 0.31; that for ELYCEVSSKIAGLDLFV, 0.57 ± 0.78.

In the case of NYHMIVRLASLKKQW, the amyloid nucleation score was 0.109 ± 0.46. For NKKESGWY, the amyloid nucleation score is -0.387 ± 0.97. For the substance VARYSDRSNTEAYRVRFLGI, the amyloid nucleation score was 1.28 ± 0.23. Next, VLFESIRWMSG: -0.142 ± 1.1; SLEDLWTRVERIRASEPVLG: -0.293 ± 0.92; FNVCLSKESVNLGRD: 0.486 ± 0.39. Take IIQRAM: the amyloid nucleation score was 0.09 ± 0.7. The result for IHQEIVNVNTIVCN reads -0.147 ± 0.25; that for KFFCCN, 7.776 ± 0.076. Next, SAVGYISLLYNSWAKYTICN: -0.562 ± 0.69; GFFPGHHSFLEATSLVSSLF: 1.4 ± 0.63; PRYRASVYYKDTRVLLLF: 0.512 ± 0.36. In the case of FRVLWDYCVSSTVRRVTSLG, the amyloid nucleation score result is “inactive”. Turning to MHMGFAWMSLIM, the amyloid nucleation score entry is “inactive”. The result for HIYSF reads 1.26 ± 0.12; that for LLDARWRTYSFRVAMLWGRR, “inactive”; that for EVIAGCGLRCRSSNHIVREM, 0.104 ± 0.36. On to MTTHVRWFNGLMSP, for which the amyloid nucleation score result was “inactive”.
